Measurements: the nanobody polyreactivity screen of Harvey et al. (2022)

Assay: yeast display, Sf9 membrane polyspecificity reagent, FACS + sequencing; frameworks hold sequencing errors
Outline: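 In a synthetic yeast display library (Saccharomyces cerevisiae BJ5465), nanobody expression was induced with galactose for 36–48 hours. FACS gates were set low and high (top ~1%) using anti-HA fluorescence for expression and streptavidin fluorescence for binding of the Sf9 membrane reagent. Each polyreactivity label is drawn from the gate of origin.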

QVQLVESGGGLVQAGGSLRLSCAASGRTFGRYAMGWYRQAPGKERELVAAISWRGSSTSYADSVKGRFTISRDNAKNTVYLQMNSLKPEDTSVYYCNAKRSGGYGGYDYWGQGTQVTVSS
polyreactivity (PSR sort gate): high polyreactivity

QVQLVESGGGLVQAGGSLRLSCAASGIIFGKYDMGWYRQAPGKEREMVAAITSGTSTNYADSVKGRFTISRDNAKNTVYLQMNSLKPEDTAVYSCAADVYLYYPYFGHRRYNYWGQGTQVTVSS
polyreactivity (PSR sort gate): high polyreactivity

QDQLVESGGGLVQAGGSLRLSCSASGRTFHRNAMGWYRQAPGKERESVAAITGDGRTNYADSVKGRFTISRDNAKNTVYLQMNSLKPEDNAVYYCAARFSYRSYDYWGQGTQVTVSS
polyreactivity (PSR sort gate): low polyreactivity

QVQLVESGGGLVQAGGSLRLSCAASGRTFTWNVMGWYRQAPGKERELVAAITTDDRTYADSEKGRFTISRDNAKNTVYLQMNSLKQEDTAVYYCATVVAWTSRPVGEDYWGQGTQVTVSS
polyreactivity (PSR sort gate): low polyreactivity

QVQLVESGGGLVQAGGSLRLRCAASGIIFDGNVMGWYSQAPGKEREFVASISISGGSTSYADSVKGRFTISRDNAKNTVYLQMNSLNPEDTAVYYCNTDVGYGRVWRWRYHGDYWGQGTQVTVSS
polyreactivity (PSR sort gate): low polyreactivity

QVQLVESGGGLVQAGGSLRLSCAASGLTFSDYAMGWYRQATGKEREFVAAITRNGGSTRYADSVKGRFTISRDNAKNTVYLQMNSLKPEDTAVYYCAADWSYEYGYWGQGTQVTVSS
polyreactivity (PSR sort gate): low polyreactivity

QVQLVESGGGLVQAGGSLRLSCAAYGSTFRYNPLGWYRQAPGKETELVAANTSGGGTNSADSVKGRFTISRDNAKNTVYLQMNSLKPEDTAVYYCAAPWGLGSELLKRDYWGQGTQVTVSS
polyreactivity (PSR sort gate): low polyreactivity

QVQLVESGGGLVQAGGSLRLSCAASGGTFHRNAMGWYRQAPGKERELVAAITSSGGSTNYADSVKGRFTISRDNAKYTVYLQMNSLKPEETAVYYCATDRYRYTSHPWSRGFDYLGQGTQVTVSS
polyreactivity (PSR sort gate): low polyreactivity

QLQLVESGGGLVQAGGSLRLSSAASGITLYQYAMGWYRQSPGKERELVAAISSSGGSTYYADSVKGRFTISRDNAKNTVYLQMNSLKPEETAVYYCAAADRFWYGYYQYDYWGQGTQVTVSS
polyreactivity (PSR sort gate): high polyreactivity

HFQLVESGGGLVQAGGSLRLSCAASVFIILINVMGWSRQAPGKERELVAVITGGGTTNYADSVKGRFTISRDNANNTVYLQMNSLKPVDTAGYYCAVDAGAGDNDYWGQGTQVTVSS
polyreactivity (PSR sort gate): low polyreactivity

QVQLVESGGGLVQAGGSLRLSCAASGRTFRVNAMGWYRQAPGKERELVAAITWRGGSTYYADSVKGRFTISRDNAKNTVYLQMNSLKPEDTAVYYCAARYSSSSRRQKSDYWGQGTQVTVSS
polyreactivity (PSR sort gate): high polyreactivity

QVQLVESGGGLVQAGGSLRLSCAASGLIFPPNVMGWYRQAPWKERELVAAITSSGSTKYADSVKGRFTISRDNAKNTVYLQMNSLKPEDTAVYYCARDQTWSYQPWYYLSYPQYEYWGQGTQVTVSS
polyreactivity (PSR sort gate): low polyreactivity

QVQLVESGGGLVQAGGSLRLSCSASGRIFSVYAMGWYRQAPGKERELVAAITWRGGSTYYADSVKGRFTISRDNAKNTVYLQMNSLKPEDTAVYYCAAVESGYGSKRFYYWGQGTQVTVSS
polyreactivity (PSR sort gate): high polyreactivity

QLQLVESGGGLVQAGGSLRLSCAASGRTFVRYAMGWYRQAPGKERELVAGISRSTGGTYYADSVKGRFTISRDNAKNTVYLQMNSLKPEDTAVYYCAAVYHKNGSGDYSWGQGTQVTVSS
polyreactivity (PSR sort gate): high polyreactivity

QVQLVESGGGLVQAGGSLRLSCAASGRIFYPNAMGWYRQAPGKERELVAAISWSGGSTYYADSVKGRFTISRDNAKNTVYLQMNSLKPEDTAVYFCAAKPYQVSSYDFSLRDYWGQGTQVTVSS
polyreactivity (PSR sort gate): low polyreactivity

QVQLVESGGGLVQAGGSLRLSCAASGSTFTWYAMGWYRQAPGKERELVAAISRGGSTNYADSVKGRFTISRDNAKNTVYLQMNSLKPEDTAVYYCAAESYWRDDYWGQGTQVTVSS
polyreactivity (PSR sort gate): low polyreactivity

QVQLVESGGGIVQAGGSLRLSCAASGLILYWYAMGLYRQAPGKERYLVAAISISGGSTYYADSVKGRFTISRDNAKNTVYLQMNSLKPEDTAVYYCAAVYFYSWEGDGDYWGQGTQVTVSS
polyreactivity (PSR sort gate): low polyreactivity

QVQLVESGGGLVQAGGSLSLSCAASGFTFYENAMGWYRQAPGKERELVATISYSGGTTYYADSVKGRFTISRDNAKNTVYLQMNSLKPEDTAVYYCNADYFYYGFPDDYWGQGTQVTVSS
polyreactivity (PSR sort gate): low polyreactivity

QVQLVESGGGLVQAGGSLRLSCAASGFIFRRNAMGWYRQAPGKERELVAAIRFRSGSTYYAHSVKGRFTISRDNAKNTVYLQKNSLKPEDTAVYYCAADNKRSWRYAYNYWGQRTQVTVSS
polyreactivity (PSR sort gate): high polyreactivity

QVQLVESGGGLVQAGGSLRLSCAASGRIFVAYAMGWYRQAPGKERELVADIDYIDGSTYYADSVKGRFTISRDNAKNTVYLQMNSLKPEDTAVYYCAVDSLYYAGYYDYWGQGTQVTVSS
polyreactivity (PSR sort gate): high polyreactivity

QVQLVESGGGLVQAGGSLRLRCAASGSNFKHNDMGWSRPAPGKERELVAAISRSGGSTYYADSVKGRFTISRDNGKNTVYLPMNSLKPEDTAVYYCNAGRRTGRYGYWGQGTQVTVSS
polyreactivity (PSR sort gate): high polyreactivity

QVQLVESGGGLVQAGGSLRLSCAASGSTFWYYTMGWSRQAPGKERELVAGITSGGSTYYADSVKGRFTISRDNAKNTVYLQMNSLKPEDTAVYYCAKRYYGRGYYYWGQGTQVTVSS
polyreactivity (PSR sort gate): high polyreactivity

QVQLVESGGGLVQAGGSLRISCAASGRIFLGNAMGWYRQAPGKERELVAAITNGGGSTYYADSVKGRFTISRDNAKNTVYLQMNSLKPEDTAVYYCARGYKKSVQRFEYWGQGTQVTVSS
polyreactivity (PSR sort gate): high polyreactivity

QVQLVESGGGLVQAGGSLRLSCAASGRTLGVYAMGWYRPAPGKERELVATITAGGSITSYADSVKGRFTISRDNAKNTVYLQMNSLKPEDTAVYYCAADVPGNYRKYRYGRASSHDYWGQGTQVTVSS
polyreactivity (PSR sort gate): low polyreactivity

QVQLVESGGGLVQAGGTLRLSCGASGLIFTSNAMGWYRQAPGKESELVAAISNTGGSTYYADSVKGRFTISRDNSKNTVYLQMNSLKPEDTAVYYCAVDPAAGLTNVFYLKYFGYDFWGQGTQVTVSS
polyreactivity (PSR sort gate): low polyreactivity

QVQLVESGGGLVQAGGSLRLSCAASGRTFLPNDMGWSIQAPGKERELVAAITDSGGDTYYADSVKGRFTISRDNAKNTVYLQMNSLKPEDTAVYYCAADYYYYGSYYPVEYWGQGTQVTVSS
polyreactivity (PSR sort gate): high polyreactivity

QDQLVESGGGLVQAGGSLRLSCAASGIIFDVYAMGWYRPAPWNERELVAGITIGDITYYADSVKGRFTISRDNAKNTVYLQMNSLKPEDTAVYYCAADSYYYQTAYDYWGQGTQVTVSS
polyreactivity (PSR sort gate): low polyreactivity

QVQLVESGGGLVQAGGSLRLSCAASGRIFSYYTMGWYRQAPGKEREMVAAITWNGGSTYYADSVKGRFTISRDNAKNTVYLQMNSLKPEDTGVYYCNRDVRYVGPSGFDYWGQGTQVTVSS
polyreactivity (PSR sort gate): high polyreactivity

QVQLVESGGGLVQAGGSLRLSCAASGRTFGRYAMGWYRQAPGKERELVATISSRGGNTYYADSVKGRFTISRDNAKNTVFLQMNSLKPEDTAVYYCAADVYSSDYDYWGQGTQVNVSS
polyreactivity (PSR sort gate): high polyreactivity

QVQLVESGGGLVQAGGSLRLSSAASGSTFEAYTMGWYRPAPGKERELVAAISRSGGSTYYADSVKGRFTISRDNAKNTVYLQMNSLKPEDTAVYYCAASRYIGYNYWGQGTQVNVSS
polyreactivity (PSR sort gate): high polyreactivity

QVQHVESCGGLDQAGGSLRLSCAASGRTFKYYTMGWYRQAPGKQREFVAAISTGGSTHYADSVKGRFTISRDNAKNTVYLQMNSLKPEVTAVSYCAAGCVLWVRDPQGRASYYWGQGTHVTVSS
polyreactivity (PSR sort gate): high polyreactivity

QVQLVESGGGLVQAGGSLRLSCAASGSIFQYYAMGWYRQAPGKERELVAAISSGGRTNYADSVKGRFTISRDNAKNTDYLQMNSLKPEDTAVYYCAAARYYYQVYRWEYDYWGQGTQVTVSS
polyreactivity (PSR sort gate): high polyreactivity

QVQLVESGGCLVQAGGSLRLSCAASRRIFNYYAMGWYRQAPGKERELVAAINSGGSTYADSVKGRFTISRDNAKNTVYLQMNSLKPEDTAVYYCAKDGQLLSGRERPSGYDHWGQGTQVTVSS
polyreactivity (PSR sort gate): low polyreactivity

QVQHVESRGGIVQAGGSLRLSCAASGFTFAYYAMGRYRQAPGKERELVAAINYSGGSTYYADSVKGRFTISRDNAKNTVYLQMNSLKPEDTAVYYCATEYYRYDGSSYDYWGQGTQVTVSS
polyreactivity (PSR sort gate): high polyreactivity

QVQLVESGGGLVQAGGSLRLICAASGSIFTIYAMGWYRQAPGKERELVAAISYSDTSTYYADSVKGRFTISRDNAKNTVYLQMNSLKPEDTAVYYCAAEDLWYIAYWDDMDYWGQGTQVTVSS
polyreactivity (PSR sort gate): low polyreactivity

QVQLVESGGGLVQAGGSLRLSCAASGSIFPDNAMGWDRQAPGKERELVAAITSGGGTYYADSVKGRFTISRDNAKNTVYLQMNSLKPEDTAVYYCNTEDYTQYEPGYYPPNYYWGQGTQVTVSS
polyreactivity (PSR sort gate): low polyreactivity

QVQLVESGGRLVQAGGSLRLSCAASGSIFLKYAMRWYRQAPGKERELVAAISSAGRTYYADSVKGRFTISRDNAKKTVYLQMNSLKPEETAVSYCAARYPYDWRHDYWGQGTQVTVSS
polyreactivity (PSR sort gate): low polyreactivity

QVQLVESGGRIVQAGGSLRLSCAASGFIYSKYAMGWSRPAPGKEGQLVAAISSSGGYTYYADSVKGRFTISRDNAKNTVYLQMNSLKPEATAVYYCNADYLFYAFDYWGHGTQVTVSS
polyreactivity (PSR sort gate): low polyreactivity

QDQLVESGGGLVQAGGSLRLSCAASGSIFDDYAMGWYRQAPRKERELVASISWSGGRTYYADSVKGRFTISRDNAKNTVYLQMNSLKPEDTAVYYCAAALWTGYSWGQGTQVTVSS
polyreactivity (PSR sort gate): low polyreactivity

QVQLVESGGGLVQAGGSLRLSCAASGLTFGTNSMGWYRQAPGKEMELVAAINRGGGSTYYADSVKGRVTISRDNAKNTVYLQMNSLKPEDTAVYYCAKSYSGSRTSDYWGQGTQVTVSS
polyreactivity (PSR sort gate): high polyreactivity

QVQLVESGGGLVQAGGSLRLSCAASGRTFWVYAMGWYRQAPGKERELVAAISLSGVSTYYADSVKGRFTISRDNAKNTVYLQMNSLKPDDTAVYYCAAPLIYTPLKYHYWGQGTQVTVSS
polyreactivity (PSR sort gate): low polyreactivity

QVQLVESGGGLVQAGGSLRLSCAASGQIFVRNAMGWYRQAPGKERELVARISSGGSTNYADSVKGRFTISRDNAKNTVYLQMISLKPEDTAVYYCAARVYKGWPTHYDYWGQGTQVTVSS
polyreactivity (PSR sort gate): high polyreactivity

QVQLVESGGGLVQAGGSLRLSCAASGSIFGSNAMGWYRQAPGKERELVAAITNTGRTNYADSVKGRFTISRDYAKNTVYLQMNSLKPEDTAVYYCNADWRRSHAYGYWGQGTQVTVSS
polyreactivity (PSR sort gate): low polyreactivity
